Test results reported in the nanobody polyreactivity screen of Harvey et al. (2022).

Assay: yeast display, Sf9 membrane polyspecificity reagent, FACS + sequencing; frameworks hold sequencing errors
Summary of the method: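 Nanobodies from a synthetic yeast display library (Saccharomyces cerevisiae BJ5465), induced 36–48 hours with galactose, were stained 1 hour at 4 °C with 10% biotinylated, detergent-solubilized Sf9 membrane reagent, enriched on streptavidin microbeads, then FACS-sorted. Anti-HA (expression) and streptavidin (reagent binding) fluorescence set low and high (top ~1%) gates. Polyreactivity labels come from the gate of origin. Genes were colony-PCR amplified, MiSeq 2 × 250 sequenced and filtered by CDR length.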

Sequence	polyreactivity (PSR sort gate)
QVQLVESGGGLVQAGGSLRLSCAASGSIFPTYAMGWYRQAPGKERELVAAIRSGSNTYYADSVKGRFTISRDNAKNTVYLQMNSLKPEDTAVYYCNVGPQRKYPGRRTVPFGYWGQGTQVTVSS	low polyreactivity
QVQLVESGGGLVQAGGSLRLSCAASGSIFPVYAMGWYRQAHGKVREFVASIRWRGGSTSYADSVKGRFTISRDNAKNTVYLQMNSLKPEETAVYYCNAVYYSWSQSARFDYWGQGTQVTVSS	low polyreactivity
QVQLVESGGGLVQAGGSLRLSCAASGSIFPVYAMGWYRQAPGKDRELVAAISFSTGSTYYADSVKGRFTISRDNAKNTVYLQMNSLKPEDTAVFYCAKYDYTDYEYWGQGTQVTVSS	high polyreactivity
QVQLVESGGGLVQAGGSLRLSCAASGSIFPVYAMGWYRQAPGKERELVAAISSRGGTTYYADSVKGRFTISRDNAKNTVYLQMNSLKPEDTAVYYCAATRSGKYYGTRRKYGYWGQGTQVTVSS	high polyreactivity
QVQLVESGGGLVQAGGSLRLSCAASGSIFPVYAMGWYRQAPGKERELVASISTGGSTYYADSVKGRFTISRDNAKNTVYLQMNSLKPEDTAVYYCAATGWAYGYGYGYWGQGTQVTVSS	low polyreactivity
QVQLVESGGGLVQAGGSLRLSCAASGSIFPWNTMGWYRQAPGKERELVARISTSGASTYYADSVKGRFTISRDNAKYTVYLQMNSLKQEDTAVYFCAKVRHYGGRSWWYYYWGQGTQVTVSS	high polyreactivity
QVQLVESGGGLVQAGGSLRLSCAASGSIFPWYAMGWYRQAPGKERELVAAITISGGSTHYADTVKGRFTISRDNAKYTVYLQMNSLKPEDTAVYYCATPRYPSYDYWGQGTQVTVSS	low polyreactivity
QVQLVESGGGLVQAGGSLRLSCAASGSIFPYAMGWYRQSPGKERELVAAITRSGASTYYADSVKGRFTISRDNAKNTVYLQMNSLKPEDTAVYYCAAYALRGVRYPYRVDFYYWGQGTQVTVSS	high polyreactivity
QVQLVESGGGLVQAGGSLRLSCAASGSIFPYAMGWYRQSPGKQRQLVAVISWSGASTYYADSVKGRFTISRDNAKNTVDLQMNSLKPEDTAVYYCAVYRYYKLVHLYGYDYWGQGTQVTVSS	high polyreactivity
QVQLVESGGGLVQAGGSLRLSCAASGSIFPYNAMGWYRQAPGKEREFVAAITYSGGSTYYADSVKGRFTISRDNAKNTVYLQMNSLKPEDTAVYYCAAGYSSRGSRDGYWGQGTQVTVSS	low polyreactivity
QVQLVESGGGLVQAGGSLRLSCAASGSIFPYNVMGWYRQAPGKERELVAAISTRGGRTYYADSVKGRFTISRDNAKNTVYLQMNSLKPEDTAVYYCNTVVLRYLYNYWGQGTQVTVSS	high polyreactivity
QVQLVESGGGLVQAGGSLRLSCAASGSIFQDYAMGWSRQAPGKERELVAVITRGGSKYYADSVKGRFTISRDNAKNTVYLQMNSLKPEDTAVYYCNTRRGRGGKYDYWGHGTQVTVSS	low polyreactivity
QVQLVESGGGLVQAGGSLRLSCAASGSIFQGNAMGWYRQAPGKERELVAAITYSGGSTYYADSVKGRFTISRDNAKNTVYLQMHSLKREDTAVYYCAAFFPSDLVDGYNYWGQGTQVTVSS	low polyreactivity
QVQLVESGGGLVQAGGSLRLSCAASGSIFQGNVMGWSRQAPGKERELVAAISSGGRTYYADSVKGRFTISRDNAKNTVYLQMNSLKPEDTAVYYCAASWLTSYAYIMYYWGQGTQVTVSS	high polyreactivity
QVQLVESGGGLVQAGGSLRLSCAASGSIFQIYAMGWYRQAPGKESELVATINRGDNTYYADSVKGRFTISRDNAKNTVYLQMHSLTPEDSAVYYCNVDRQVITGRYIGDYWGQGTLVTVSS	low polyreactivity
QVQLVESGGGLVQAGGSLRLSCAASGSIFQPYAMGWYRQAPGKERELVAAISIGDSTNYADSVKGRFTISRDNAKNTVYLQMNSLKPADTAVYYCNTTGEYYDYWGQATQVTVSS	low polyreactivity
QVQLVESGGGLVQAGGSLRLSCAASGSIFQQYAMGWYRQAPGKERELVAAISWGDGSTYYADSVKGRFTISRDNAKNTVYLQMNSLKPEDTAVYYCNAYASAPLWSLEDDYWGQGTQVTVSS	low polyreactivity
QVQLVESGGGLVQAGGSLRLSCAASGSIFQQYAMGWYRQAPGKERELVAAISYSGGTTYYADSVKGRFTISRDNAKNTVYLQMNSLKPEDTAVYYCAAYYPSGSYDYYWGQGTQVTVSS	low polyreactivity
QVQLVESGGGLVQAGGSLRLSCAASGSIFQRNAMGWYRQAPGKERELVAAISRSGGRTYYADSVKGRFTISRDNAKNTVYLQMNSLKPEDTAVYYCAADSPYIQNRFEYWGQGTQVTVSS	high polyreactivity
QVQLVESGGGLVQAGGSLRLSCAASGSIFQRYAMGWYRQAPGKEREFVAAISGRGGSTYYADSVKGRFTISRDNAKNTVYLQMNSLKPEDTAVYYCADDSSRFYGRPRYYYWGQGTQVTVSS	high polyreactivity
QVQLVESGGGLVQAGGSLRLSCAASGSIFQRYAMGWYRQAPGKERELVAGINWSGGRTYYADSVKGRFTISRDNAKNTVYLQMNSLKPEDTAVYYCAKPVERYTYSLYQQYDYWGQGTQVTVSS	high polyreactivity

Sequence	polyreactivity (PSR sort gate)
QVQLVESGGGLVQAGGSLRLSCAASGSIFQSNAMGWYRQAPGKEREFVAAITASGGRTYYADSVKGRFTISRDNAKNTDYLLMNSLKPEDTAVYFCAARGRYYWGGRSYDYWGHGTQVTVSS	high polyreactivity
QVQLVESGGGLVQAGGSLRLSCAASGSIFQSNAMGWYRQAPGKERELFAAISWNTGSTYADSVKGRFTISRDNAKNTVYLQMNSLKPEDTAVYYCAADRSHAYYRKNRVDYWGQGTQVTVSS	low polyreactivity
QVQLVESGGGLVQAGGSLRLSCAASGSIFQTYAMGWYRQAPGKERELVAAIDGGDTTNYADSVKGRFTISRDNAKNTVYLQMNSLKPEDTAVYYCNADWGQVTQVTVSS	low polyreactivity
QVQLVESGGGLVQAGGSLRLSCAASGSIFQWNAMGWYRQAPGKERELVAAISTRGGRTYYADSVKGRFTISRDNAKNTDYLQMNSLKPEDTAVYYCAKQYGSYGRYYKYYYWGQGTQVTVSS	high polyreactivity
QVQLVESGGGLVQAGGSLRLSCAASGSIFQYYAMGWYRQAPGKERELVAAISSGGRTNYADSVKGRFTISRDNAKNTDYLQMNSLKPEDTAVYYCAAARYYYQVYRWEYDYWGQGTQVTVSS	high polyreactivity
QVQLVESGGGLVQAGGSLRLSCAASGSIFRANTMGWYRQAPGKERELVAVISSGGRTYYADSVKGRFTISRDNAKNTVYLQMNSLKPEDTAVYYCAAKRGYGYGYWGQGTQVTVSS	high polyreactivity
QVQLVESGGGLVQAGGSLRLSCAASGSIFRAYAMGWYRQAHGKERELVAAITGNGARTYYADSVKGRFTISRDNAKNTVYLQMNSLKPEDTAVYYCAKRGNRQHRWWYDYWGQGTQVTVSS	low polyreactivity
QVQLVESGGGLVQAGGSLRLSCAASGSIFRAYAMGWYRQAPGKERELVAAITNGGGTTYYADSVKGRFTISRDNAKNTVYLQMNSLKPEDTAVYYCAADGAYSYASYDYWGQGTQVTVSS	low polyreactivity
QVQLVESGGGLVQAGGSLRLSCAASGSIFRAYAMGWYRQAPGKERELVADISRSGGSTYYADSVKGRFTISRDNAKNTVYLQLNSLKPEDTAVYYCAAVFYLYSNLYGEYDYWGQGTQVTVSS	low polyreactivity
QVQLVESGGGLVQAGGSLRLSCAASGSIFRAYAMGWYRQAPGKERELVADISRSGGSTYYADSVKGRFTISRDNAKNTVYLQMNSLKPEDTAVYYCAAVFYLYSNLYGEYDYWGQGTQVTVSS	low polyreactivity
QVQLVESGGGLVQAGGSLRLSCAASGSIFRDNTMGWYRQAPGKERELVAAISYSGGGTYYADSVKGRVTISRDNAKNTVYLQMNSLKPEDTAVYYCAKRTYPWYYREIPYGYWGQGTQVTVSS	high polyreactivity
QVQLVESGGGLVQAGGSLRLSCAASGSIFREYVMGWYRQAPGKEREFVAAISVSGGSTNYADSVKGRFTISRDNAKNTVYLQMNSLKPEDTAVYYCNADGVLTGYSRGGWYYWGQGTQVTVSS	low polyreactivity
QVQLVESGGGLVQAGGSLRLSCAASGSIFRFNPMGWYRQAPGKERELVAAISWSGGLTYYADSVKGRFTISRDNAKNTVSLQMNSLKPEDTAVYYCNAGRRYPLRYDYWGQGTQVTVSS	high polyreactivity
QVQLVESGGGLVQAGGSLRLSCAASGSIFRFNVMGWYRQAPGKERELVAAITRGDSTNYADSVKGRFTISRDNAKNTVYLQMNSLKPEDTAVYYCAAGYYYYLRDHDYWGQGTQVTVSS	low polyreactivity
QVQLVESGGGLVQAGGSLRLSCAASGSIFRFYAMGWYIQAPGKERELVAAIRFSGGNTYYADSVKGRFTISCDNAKNTVYLQMNSLKPEDTAVYYCAKYRRVKPKRYDYDYWGQGTQVTVSS	high polyreactivity
QVQLVESGGGLVQAGGSLRLSCAASGSIFRFYAMGWYRQAPGKERELVAAISSGGSTYYADSVKGRFTISRDNAKNTVYLQMKSLKPEDTAVYYCAHGFAQYGLDLDPGDYDYWGQGTQVTVSS	low polyreactivity
QVQLVESGGGLVQAGGSLRLSCAASGSIFRFYAMGWYRQAPGKERELVADISWRGGSTYYADSVKGRFTISRDNAKNTVYLQMNSLKPEDTAVSYCAAGYYRASTTVTHGGIEGDSWGQGTQVTVSS	high polyreactivity
QVQLVESGGGLVQAGGSLRLSCAASGSIFRFYAMGWYRQAPGQERELVAAITSGGSTNYADSVKGRFTISRDNAKNTVYLQMNSLKPEDTAVYYCAAVLVYFFIYDYWGQGTQVTVSS	low polyreactivity
QVQLVESGGGLVQAGGSLRLSCAASGSIFRGNALGWYRQAPGKERELVATITNGGSTNYADSVKGRFTISRDNAKNTVYLQMNSLKPEDTAVYSCNADHSYHIASTRHVDYWGQGNQVTVSS	low polyreactivity
QVQLVESGGGLVQAGGSLRLSCAASGSIFRGYALGWYRQAPGKERALVAAITKRGGNTYYADSVKGRFTISRDHAKNTVYLQMNSLKPEDTAVYYCAKAGWGKWVYAQMVYWGQGTQVTVSS	high polyreactivity
